Reference: the RNAGym collection of RNA variant scans (doi:10.1093/molbev/msab373)

B1: Azoarcus group I ribozyme (parent)
chain: GUGCCUUGCGCCGGGAAACCACGCAAGGGAUGGUGUCAAAUUCGGCGAAACCUAAGCGCCCGCCCGGGCGUAUGGCAACGCCGAGCCAAGCUUCGGCGCCUGCGCCGAUGAAGGUGUAGAGACUAGACGGCACCCACCUAAGGCAAACGCUAUGGUGAAGGCAUAGUCCAGGGAGUGGCGAAAGUCACACAAACCGG

Variants of: B1
Assay: reverse-splicing fitness (ratio to wild type); higher = more active; in vitro selection; Mg2+ level not given
Procedure, shortened: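 An in vitro group I ribozyme library with randomized positions was T7-transcribed and gel-purified. In triplicate, 10 pmol RNA in EPPS pH 7.5 was reacted with 50 pmoles of a 30-nt RNA substrate for 1 h at 37 °C across several added MgCl2 levels (1–48 mM), then stopped with EDTA. Products were reverse transcribed from a substrate-complementary primer, PCR-amplified and sequenced (HiSeq 4000). Fitness is a variant's read proportion after selection over that before, normalised to wild type.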

Variant | reverse-splicing fitness
A111U A120C A145U C169A | 0.0103
A111U A120C A145U C169U | 0.168
A111U A120G A145G C150G | 0.0235
A111U A120G A145G C150A | 0.0285
A111U A120G A145G C150U | 0.133
A111U A120G A145C C150G C169G | 0.0237
A111U A120G A145C C150G C169A | 0.0154
A111U A120G A145C C150G C169U | 0.0237
A111U A120C U176C | 0.28
A111U A120C U176G | 0.0439
A111U A120C U176A | 0.277
A111U A120C A145G C150U U176C | 0.25
A111U A120C A145G C150U U176G | 0.0319
A111U A120C A145G C150U U176A | 0.176
A111U A120C C150A C169A | 0.0105
A111U A120C C150A C169U | 0.0239
A111U A120C C150A C169G | 0.00847
A111U A120C A145U C150G C169U | 0.0242
A111U A120C A145U C150G C169A | 0.00829
A111U A120C A145U C150G C169G | 0.00662
A111U A120G A145G C150A C169A U176G | 0.00599

Variant | reverse-splicing fitness
A111U A120G A145G C150A C169A U176A | 0.0188
A111U A120G A145G C150A C169A U176C | 0.0255
A111U A120C A145U C150A C169A U176G | 0.00488
A111U A120C A145U C150A C169A U176C | 0.00867
A111U A120C A145U C150A C169A U176A | 0.0108
A111U A120G A145C C150U C169A | 0.0284
A111U A120G A145C C150U C169U | 0.0397
A111U A120G A145C C150U C169G | 0.0495
A111U A120G A145G C169A | 0.119
A111U A120G A145G C169G | 0.222
A111U A120G A145G C169U | 0.158
A111U A120C A145G C169A U176G | 0.0041
A111U A120C A145G C169A U176C | 0.0215
A111U A120C A145G C169A U176A | 0.019
A111U A120C C169A U176C | 0.017
A111U A120C C169A U176G | 0.00415
A111U A120C C169A U176A | 0.0174
A111U A120G A145G C150U U176G | 0.00725
A111U A120G A145G C150U U176A | 0.0295
A111U A120G A145G C150U U176C | 0.0446
A111U A120C A145G C150U C169U U176A | 0.0282

Variant | reverse-splicing fitness
A111U A120C A145G C150U C169U U176C | 0.0389
A111U A120C A145G C150U C169U U176G | 0.0053
A111U A120G A145G U176A | 0.0417
A111U A120G A145G U176G | 0.00558
A111U A120G A145G U176C | 0.0543
A111U A120C C150A C169G U176C | 0.0197
A111U A120C C150A C169G U176G | 0.00525
A111U A120C C150A C169G U176A | 0.0168
A111U A120C C150G C169A U176C | 0.0104
A111U A120C C150G C169A U176G | 0.00573
A111U A120C C150G C169A U176A | 0.00901
A111U A120C C150U C169U U176G | 0.00585
A111U A120C C150U C169U U176A | 0.0292
A111U A120C C150U C169U U176C | 0.0362
A111U A120G A145U C150U C169G U176C | 0.0378
A111U A120G A145U C150U C169G U176A | 0.0274
A111U A120G A145U C150U C169G U176G | 0.00496
A111U A120C A145U C150U C169G | 0.00826
A111U A120C A145U C150U C169U | 0.112
A111U A120C A145U C150U C169A | 0.0105
A111U A120G A145U C150A C169G U176G | 0.00465

Variant | reverse-splicing fitness
A111U A120G A145U C150A C169G U176A | 0.0165
A111U A120G A145U C150A C169G U176C | 0.0194
A111U A120C A145U C150U C169G U176A | 0.0113
A111U A120C A145U C150U C169G U176G | 0.00445
A111U A120C A145U C150U C169G U176C | 0.0102
A111U A120G A145C C150U C169G U176G | 0.00545
A111U A120G A145C C150U C169G U176A | 0.0293
A111U A120G A145C C150U C169G U176C | 0.0226
A111U A120C A145U C150A C169U U176A | 0.0185
A111U A120C A145U C150A C169U U176G | 0.00493
A111U A120C A145U C150A C169U U176C | 0.0187
A111U A120G A145U C150G C169A U176G | 0.00496
A111U A120G A145U C150G C169A U176C | 0.0105
A111U A120G A145U C150G C169A U176A | 0.0103
A111U A120G A145C C169G U176G | 0.00442
A111U A120G A145C C169G U176C | 0.0387
A111U A120G A145C C169G U176A | 0.0371
A111U A120G A145G C150G C169U U176A | 0.0113
A111U A120G A145G C150G C169U U176C | 0.015
A111U A120G A145G C150G C169U U176G | 0.00728
